The experiment deals with ADDomer-SpyTag (ADD-ST) particle (human adenovirus type 3). Put plainly: covalent adduct on SDS-PAGE.

Take SpyCatcher (SC) (designed binder): the stoichiometry N (copies per particle) was 60.

These data come from article doi:10.1101/2021.09.13.460076.
